Results as given in US20240310383A1, “Proteomic Risk Score For Osteoarthritis (OA)” (Regeneron Pharmaceuticals, Inc., priority 2023, published 2024).

System: patients with pain due to osteoarthritis of the knee or hip
Test: WOMAC pain and functional score improvement in R475-OA-1688 clinical trial, stratified by OA proteomic risk score groups
Format: in vivo, human

B1: fasinumab (antibody, chains of the INN, looked up, V domains shown)
VH: QVQLVQSGAEVKKPGASVKVSCKVSGFTLTELSIHWVRQAPGKGLEWMGGFDPEDGETIYAQKFQGRVTMTEDTSTDTAYMELTSLRSEDTAVYYCSTIFGVVTNFDNWGQGTLVTVSS
VL: DIQMTQSPSSLSASAGDRVTITCRASQAIRNDLGWYQQKPGKAPKRLIYAAFNLQSGVPSRFSGSGSGTEFTLTISSLQPEDLASYYCQQYNRYPWTFGQGTKVEIK
notes: anti-NGF antibody (NGF antagonist) tested in phase 3 study R475-OA-1688
Fasinumab 1q4w, OA proteomic score high risk group
  efficacy compared with both NSAIDs or placebo treated patients: has efficacy benefits
Fasinumab 1q4w, patients in 1st to 3rd OA proteomic score quartiles
  efficacy compared with either NSAIDs or placebo: maintains efficacy superiority
Patients in 1st to 3rd OA proteomic score quartiles, fasinumab 1q4w, FIG. 9 and FIG. 10
  efficacy profile (both WOMAC pain and WOMAC functional scores): better efficacy profile
